Changes are numbered by the printed parent chain. In names and notes the source's numbering stands.
What was measured:
Type in all cases: biochemical, B. amyloliquefaciens
[1] = substrate: CSCC[C@H](NC(=O)[C@@H]1CCCN1C(=O)[C@H](C)NC(=O)[C@H](C)NC(=O)CCC(=O)O)C(=O)Nc1ccc([N+](=O)[O-])cc1; assay: Kinetics of hydrolysis of succinyl-Ala-Ala-Pro-X-p-nitroanilide substrates (progress curve analysis); settings: other: Table XIV, 156 Glu / 166 Gly(wt); value in parentheses; synthetic substrate with label as P-1 amino acid
Excerpt: (§1) A change in substrate specificity is defined as a difference between the kcat/Km ratio of the precursor carbonyl hydrolase and that of the hydrolase mutant. The kcat/Km ratio is a measure of catalytic efficienty. Carbonyl hydrolase mutants with increased or diminished kcat/Km ratios are described in the examples. Generally, the objective will be to secure a mutant having a greater (numerically large) kcat/Km ratio for a given substrate, thereby enabling the use of the enzyme to more efficiently act on a target substrate. A substantial change in kcat/Km ratio is preferably at least 2-fold increase or decrease. However, smaller increases or decreases in the ratio (e.g., at least 1.5-fold) are also considered substantial. An increase in kcat/Km ratio for one substrate may be accompanied by a reduction in kcat/Km ratio for another substrate. […] Km and kcat are measured in accord with known procedures, as described in EPO Publication No. 0130756 or as described herein.
(§2) Wild-type subtilisin was purified from B. subtilis culture supernatants expressing the B. amyloliquefaciens subtilisin gene (Wells, J.A., et al. (1983) Nucleic Acids Res. 11, 7911-7925) as previously described (Estell, D.A., et al. (1985) J. Biol. Chem. 260, 6518-6521). Details of the synthesis of tetrapeptide substrates having the form succinyl-L-AlaL-AlaL-ProL-[X]-p-nitroanilide (where X is the P1 amino acid) are described by DelMar, E.G., et al. (1979) Anal. Biochem. 99, 316-320. Kinetic parameters, Km(M) and kcat-(s-^1) were measured using a modified progress curve analysis (Estell, D.A., et al. (1985) J. Biol. Chem. 260, 6518-6521). Briefly, plots of rate versus product concentration were fit to the differential form of the rate equation using a non-linear regression algorithm. Errors in kcat and Km for all values reported are less than five percent. The various substrates in Table VIII are ranged in order of decreasing hydrophobicity. Nozaki, Y. (1971), J. Biol. Chem. 246, 2211-2217; Tanford C. (1978) Science 200, 1012).

[2] = substrate: C[C@H](NC(=O)CCC(=O)O)C(=O)N[C@@H](C)C(=O)N1CCC[C@H]1C(=O)N[C@@H](CO)C(=O)Nc1ccc([N+](=O)[O-])cc1; assay: as above; settings: other: Table VIII; substrate succinyl-L-AlaL-AlaL-ProL-[X]-p-nitroanilide, X = label (P1 amino acid)
Excerpt: as §1, §2

[3] = substrate: C[C@H](NC(=O)CCC(=O)O)C(=O)N[C@@H](C)C(=O)N1CCC[C@H]1C(=O)N[C@@H](Cc1ccccc1)C(=O)Nc1ccc([N+](=O)[O-])cc1; assay: as above; settings: other: Table V; substrate not given; Km in M
Excerpt: as §1, §2

[4] = substrate: C[C@H](NC(=O)CCC(=O)O)C(=O)N[C@@H](C)C(=O)N1CCC[C@H]1C(=O)N[C@@H](Cc1ccc(O)cc1)C(=O)Nc1ccc([N+](=O)[O-])cc1; assay: as above; settings: other: Table VIII; substrate succinyl-L-AlaL-AlaL-ProL-[X]-p-nitroanilide, X = label (P1 amino acid)
Excerpt: as §1, §2

[5] = substrate: C[C@H](NC(=O)[C@H](Cc1ccccc1)NC(=O)CCC(=O)O)C(=O)N1CCC[C@H]1C(=O)N[C@@H](Cc1ccccc1)C(=O)Nc1ccc([N+](=O)[O-])cc1; assay: as above; settings: other: Table XI, WT
Excerpt: as §1, §2

[6] = substrate: C[C@H](NC(=O)CCC(=O)O)C(=O)N[C@@H](C)C(=O)N1CCC[C@H]1C(=O)NCC(=O)Nc1ccc([N+](=O)[O-])cc1; assay: as above; settings: other: Table VIII; substrate succinyl-L-AlaL-AlaL-ProL-[X]-p-nitroanilide, X = label (P1 amino acid)
Excerpt: as §1, §2

[7] = substrate: C[C@H](NC(=O)[C@@H]1CCCN1C(=O)[C@H](C)NC(=O)[C@H](Cc1ccccc1)NC(=O)CCC(=O)O)C(=O)Nc1ccc([N+](=O)[O-])cc1; assay: as above; settings: other: Table XI, WT
Excerpt: as §1, §2

[8] = substrate: C[C@H](NC(=O)CCC(=O)O)C(=O)N[C@@H](C)C(=O)N1CCC[C@H]1C(=O)N[C@@H](CCC(=O)O)C(=O)Nc1ccc([N+](=O)[O-])cc1; assay: as above
Excerpt: as §1, §2

[9] = substrate: CC(C)C[C@H](NC(=O)[C@@H]1CCCN1C(=O)[C@H](C)NC(=O)[C@H](C)NC(=O)CCC(=O)O)C(=O)Nc1ccc([N+](=O)[O-])cc1; assay: as above; settings: other: Table VIII; substrate succinyl-L-AlaL-AlaL-ProL-[X]-p-nitroanilide, X = label (P1 amino acid)
Excerpt: as §1, §2

[10] = substrate: C[C@H](NC(=O)CCC(=O)O)C(=O)N[C@@H](C)C(=O)N1CCC[C@H]1C(=O)N[C@@H](CCC(N)=O)C(=O)Nc1ccc([N+](=O)[O-])cc1; assay: as above; settings: other: Table XIV, 156 Glu / 166 Gly(wt); value in parentheses; synthetic substrate with label as P-1 amino acid
Excerpt: as §1, §2

[11] = substrate: C[C@H](NC(=O)CCC(=O)O)C(=O)N[C@@H](C)C(=O)N1CCC[C@H]1C(=O)N[C@@H](CCCCN)C(=O)Nc1ccc([N+](=O)[O-])cc1; assay: as above; settings: other: Table XIV, 156 Glu / 166 Gly(wt); value in parentheses; synthetic substrate with label as P-1 amino acid
Excerpt: as §1, §2

[12] = substrate: C[C@H](NC(=O)CCC(=O)O)C(=O)N[C@@H](C)C(=O)N1CCC[C@H]1C(=O)N[C@@H](Cc1c[nH]cn1)C(=O)Nc1ccc([N+](=O)[O-])cc1; assay: as above; settings: other: Table VIII; substrate succinyl-L-AlaL-AlaL-ProL-[X]-p-nitroanilide, X = label (P1 amino acid)
Excerpt: as §1, §2

[13] = substrate: C[C@H](NC(=O)CCC(=O)O)C(=O)N[C@@H](C)C(=O)N1CCC[C@H]1C(=O)N[C@@H](C)C(=O)Nc1ccc([N+](=O)[O-])cc1; assay: as above
Excerpt: as §1, §2

[14] = substrate: CSCC[C@H](NC(=O)[C@@H]1CCCN1C(=O)[C@H](C)NC(=O)[C@H](C)NC(=O)CCC(=O)O)C(=O)Nc1ccc([N+](=O)[O-])cc1; assay: Kinetics of p-nitroanilide substrate hydrolysis, M166; settings: other: Table XIV, 156 Glu / 166 Met; value in parentheses; synthetic substrate with label as P-1 amino acid
Excerpt: as §2
(§3) To probe the change in substrate specificity caused by steric alterations in the S-1 subsite, position 166 mutants were kinetically analyzed versus P1 substrates of increasing size (i.e., Ala, Met, Phe and Tyr). Ratios of kcat/Km are presented in log form in Figure 15 to allow direct comparisons of transition-state binding energies between various enzyme-substrate pairs.
(§4) To isolate the contribution of electrostatics to substrate specificity from other chemical binding forces, these various single and double mutants were analyzed for their ability to bind and cleave synthetic substrates containing Glu, Gln, Met and Lys as the P-1 substrate amino acid. This permitted comparisons between side-chains that were more sterically similar but differed in charge (e.g., Glu versus Gln, Lys versus Met). Similarly, mutant enzymes were assayed against homologous P-1 substrates that were most sterically similar but differed in charge (Table XIV).
(§5) The kcat/Km ratios shown are the second order rate constants for the conversion of substrate to product, and represent the catalytic efficiency of the enzyme. These ratios are presented in logarithmic form to scale the data, and because log kcat/Km is proportional to the lowering of transition-state activation energy (△GT). Mutations at position 156 and 166 produce changes in catalytic efficiency toward Glu, Gln, Met and Lys P-1 substrates of 3100, 60, 200 and 20 fold, respectively.

[15] = substrate: C[C@H](NC(=O)CCC(=O)O)C(=O)N[C@@H](C)C(=O)N1CCC[C@H]1C(=O)N[C@@H](CCC(=O)O)C(=O)Nc1ccc([N+](=O)[O-])cc1; assay: as above; settings: other: Table XIV, 156 Glu / 166 Met; value in parentheses; synthetic substrate with label as P-1 amino acid
Excerpt: as §2, §3, §4, §5

[16] = substrate: C[C@H](NC(=O)CCC(=O)O)C(=O)N[C@@H](C)C(=O)N1CCC[C@H]1C(=O)N[C@@H](CCC(N)=O)C(=O)Nc1ccc([N+](=O)[O-])cc1; assay: as above; settings: other: Table XIV, 156 Glu / 166 Met; value in parentheses; synthetic substrate with label as P-1 amino acid
Excerpt: as §2, §3, §4, §5

[17] = substrate: C[C@H](NC(=O)CCC(=O)O)C(=O)N[C@@H](C)C(=O)N1CCC[C@H]1C(=O)N[C@@H](CCCCN)C(=O)Nc1ccc([N+](=O)[O-])cc1; assay: as above; settings: other: Table XIV, 156 Glu / 166 Met; value in parentheses; synthetic substrate with label as P-1 amino acid
Excerpt: as §2, §3, §4, §5

[18] = other: Table XIII, Glu156/Gly166 (WT), synthetic substrate with label as P-1 residue
[19] = other: Table VIII, substrate succinyl-L-AlaL-AlaL-ProL-[X]-p-nitroanilide, X = label (P1 amino acid)

B1: B. amyloliquefaciens subtilisin, wild type (WT, Gly166) (Bacillus amyloliquefaciens) (protein)
chain: AQSVPYGVSQIKAPALHSQGYTGSNVKVAVIDSGIDSSHPDLKVAGGASMVPSETNPFQDNNSHGTHVAGTVAALNNSIGVLGVAPSASLYAVKVLGADGSGQYSWIINGIEWAIANNMDVINMSLGGPSGSAALKAAVDKAVASGVVVVAAAGNEGTSGSSSTVGYPGKYPSVIAVGAVDSSNQRASFSSVGPELDVMAPGVSIQSTLPGNKYGAYNGTSMASPHVAGAAALILSKHPNWTNTQVRSSLENTTTKLGDSFYYGKGLINVQAAAQ
notes: at various amino acid residues within the mature form of the subtilisin molecule; made in house; host or cells: Bacillus subtilis (secreted, culture supernatant)
Km [1]: 107 µM | kcat [1]: 13 S^-1 | kcat/Km [1]: 120,000 s-^1M-1 | kcat [2]: 2.8 S^-1 | kcat/Km [2]: 4,200 s-^1M-1 | Km [3]: 140 µM | kcat [3]: 50.0 s-^1 | kcat/Km [3]: 360000 M⁻¹ s⁻¹ | kcat [4]: 28 S^-1 | kcat/Km [4]: 1,100,000 s-^1M-1 | Km [5]: 180 µM | kcat [5]: 26.0 s-^1 | kcat/Km [5]: 150000 M⁻¹ s⁻¹ | kcat [6]: 0.003 S^-1 | kcat/Km [6]: 21 s-^1M-1 | Km [7]: 73 µM | kcat [7]: 0.32 s-^1 | kcat/Km [7]: 4400 M⁻¹ s⁻¹ | Km [8, 18]: 34000 µM | kcat [8, 18]: 0.54 s-^1 | kcat/Km [8, 18]: 16 M⁻¹ s⁻¹ | Km ([8]; other: Table XIV, 156 Glu / 166 Gly(wt), value in parentheses, synthetic substrate with label as P-1 amino acid): 33900 µM | kcat [9]: 24 S^-1 | kcat/Km [9]: 75,000 s-^1M-1 | Km [10]: 447 µM | kcat [10]: 3.2 S^-1 | kcat/Km [10]: 7,100 s-^1M-1 | Km [11]: 741 µM | kcat [12]: 7.9 S^-1 | kcat/Km [12]: 13,000 s-^1M-1 | kcat [13, 19]: 1.9 S^-1 | kcat/Km [13, 19]: 11,000 s-^1M-1 | Km ([13]; other: Table XI, WT): 230 µM | kcat ([13]; other: Table XI, WT): 3.2 s-^1 | kcat/Km ([13]; other: Table XI, WT): 14000 M⁻¹ s⁻¹

B2: B. amyloliquefaciens subtilisin variant Glu156/M166 (Gly166 to Met) (Bacillus amyloliquefaciens; G273M) (protein)
chain: B1 chain with G166M
notes: at various amino acid residues within the mature form of the subtilisin molecule; made in house; host or cells: Bacillus subtilis BG2036
Km [14]: 14.8 µM | Km [15]: 5010 µM | Km [16]: 646 µM | Km [17]: 129 µM

From EP0251446B1, “Non-human Carbonyl hydrolase mutants, DNA sequences and vectors encoding same and hosts transformed with said vectors” (GENENCOR INTERNATIONAL, INC., priority 1986, dated 1988)
